Test [1] deals with T1, recombinant human TFPI (tissue factor pathway inhibitor) (human, UniProt P10646 29-304). The test is described as follows: cell-based or functional assay.
Test [2] deals with T1, recombinant human TFPI (tissue factor …). The test is described as follows: cell-based or functional assay. The source holds these as a separate data set.
The target is the same in test [3]. The test is described as follows: cell-based or functional assay. This is another data set of the same source.
Test [4] shares this target. The experiment in a line: cell-based or functional assay. The source holds these as a separate data set.
The target is the same in test [5]. The test is described as follows: SPR, Biacore T-200; IgG captured on protein A (CM5), TFPI as analyte. How it is done: Dissociation of the TFPI associated with the antibody was induced by running 10 mM glycine-HCl (pH 1.5) at a flow rate for 30 seconds. The affinities in terms of kinetic rate constants (Kₒₙ and Koff) and equilibrium dissociation constant (KD) were evaluated using Biacore T-200 evaluation software, and the results are shown in Table 24 below.
Background: Surface plasmon resonance follows binding to a sensor surface in real time, without labels.

B1: clone 3241 (antibody, V domains shown)
VH: EVQLVESGGGLVKPGGSLRLSCAASGFTFSSYAMNWVRQAPGKGLEWVSTITTGGSYTYYADSVEGRFTISRDNAKNSLYLQMNSLRAEDTAVYYCARQDGNFLMDYWGQGTLVTVSS
VL: DVVMTQTPLSLPVTLGQPASISCKSSQSLLDIDGKTYLNWLQQRPGQSPKRLIYLVSKLDSGVPDRFTGSGSGTDFTLKISRVEAEDVGVYYCWQGTHFPFTFGQGTKVEIKR
notes: scFv on yeast at selection; human IgG4/kappa IgG as purified; also called No. 3241 antibody
In general, Kd refers to the free concentration of one partner at which half of the binding sites on the other are occupied at equilibrium, for simple one-to-one binding. Regarding B1, in test [1], the “effect of inhibiting TFPI, FXa activity assay, Ab 10 nM” value was about 83% and the “effect of inhibiting TFPI, FXa activity assay, Ab 20 nM” value was about 82%. Further, in test [2], the “A405, TF/FVIIa/FX complex assay, Ab 1.56 nM” value turned out to be 0.157; the “A405, TF/FVIIa/FX complex assay, Ab 3.13 nM” value turned out to be 0.171; the “A405, TF/FVIIa/FX complex assay, Ab 6.25 nM” value was 0.197; the “A405, TF/FVIIa/FX complex assay, Ab 12.5 nM” value was determined as 0.305. In addition, in test [2], the “A405, TF/FVIIa/FX complex assay, Ab 25 nM” value is 0.911; the “A405, TF/FVIIa/FX complex assay, Ab 50 nM” value was 0.935; the “A405, TF/FVIIa/FX complex assay, Ab 100 nM” value was 0.937. In test [3], the “% of Normalized, TF/FVIIa/FX complex assay, Ab 1.56 nM” value was 17.2%; the “% of Normalized, TF/FVIIa/FX complex assay, Ab 3.13 nM” value came to 18.7%; the “% of Normalized, TF/FVIIa/FX complex assay, Ab 6.25 nM” value came to 21.5%; the “% of Normalized, TF/FVIIa/FX complex assay, Ab 12.5 nM” value came out at 33.3%. Also, in test [3], the “% of Normalized, TF/FVIIa/FX complex assay, Ab 25 nM” value was 99.6%; the “% of Normalized, TF/FVIIa/FX complex assay, Ab 50 nM” value was 102%; the “% of Normalized, TF/FVIIa/FX complex assay, Ab 100 nM” value is 102%. For the same molecule, in test [4], the “FXa assay % of FXa alone, 2.5 nM Ab, 10 nM TFPI” value was 11.2%; the “FXa assay % of FXa alone, 5 nM Ab, 10 nM TFPI” value stood at 50.9%; the “FXa assay OD, 2.5 nM Ab, 10 nM TFPI” value was determined as 0.091; the “FXa assay OD, 5 nM Ab, 10 nM TFPI” value is 0.413. Moreover, in test [4], the “FXa assay OD, 10 nM Ab, 10 nM TFPI” value was determined as 0.677 and the “FXa assay OD, 20 nM Ab, 10 nM TFPI” value was 0.665. Moreover, the Kd in test [5] was 74 pM.

Source of the values: patent US20180030151A1 (MOGAM INSTITUTE FOR BIOMEDICAL RESEARCH, published 2018).
